The results in this text go back to PMC7538161, “Breakage of the oligomeric CaMKII hub by the regulatory segment of the kinase” (eLife, 2020).

“And” between values parts separate entries of the source, which are not always exact repeats. Equal entries are not always repeated. Non-standard residues stand in square brackets, D forms with d. No end group written: not given here. pT = C[C@@H](OP(=O)(O)O)[C@H](N)C(=O)O

B1: Peptide H, CaMKIINTide (peptide)
peptide: KRPPKLGQIGRSKRVVIEDDRIDDVLK
notes: source: bought: Elim Biopharm (lyophilized powder)
B2: Peptide B (peptide)
peptide: AILTTMLATRNFSGGKSGGNKK
notes: as for B1
B3: Peptide B^phos (peptide)
peptide: AIL[pT]TMLATRNFSGGKSGGNKK
modifications: also: phosphothreonine at Thr 305
notes: also called phosphorylated Peptide B; source: bought: Elim Biopharm (lyophilized powder)
B4: Peptide A (peptide)
peptide: LKKFNARRKLKGAILTTMLA
notes: as for B1
B5: Peptide G (peptide)
peptide: RSTVASCMHRQETVDCLKKFNA
notes: also called autonomy site peptide; source: bought: Elim Biopharm (lyophilized powder)
B6: Peptide A^phos (peptide)
peptide: LKKFNARRKLKGAIL[pT]TMLA
modifications: also: phosphothreonine at Thr 305
notes: also called phosphorylated Peptide A; source: bought: Elim Biopharm (lyophilized powder)
B7: human CaMKII-α hub domain (domain or fragment, UniProt Q9UQM7 345-475, looked up)
chain: VRKQEIIKVTEQLIEAISNGDFESYTKMCDPGMTAFEPEALGNLVEGLDFHRFYFENLWSRNSKPVHTTILNPHIHLMGDESACIAYIRITQYLDAGGIPRTAQSEETRVWHRRDGKWQIVHFHRSGAPSV
notes: Ca2+/calmodulin-dependent protein kinase II alpha (CaMKII-α), human, hub domain, residues 345-475 of Uniprot Q9UQM7; Forms dodecameric and tetradecameric assemblies; also called the hub; hub assembly; source: E. coli BL21, purified (Ni-NTA, PreScission cleavage, Ni-NTA flow-through, Superose 6 gel filtration); not shown: His6, N-terminal, cleaved; copies: 12 or 14

The target of series [1] is B7. Nature of the series: native MS; hub 120 µM (subunits) mixed with 1 µM to 1 mM unphosphorylated peptide, ~400 mM ammonium acetate, incubated 5 min at room temperature; nanoelectrospray, sample cone voltage 50 V, source 80°C. The note with it: both partners purified.
Series [2] has as its target B7. Nature of the series: native MS; hub 120 µM (subunits) mixed with 1 to 100 µM phosphorylated peptide, ~400 mM ammonium acetate, injected at once without incubation; sample cone voltage 50 V. The note with it: both partners purified.
Series [3] concerns the molecule itself. Nature of the series: native MS; hub alone, 120 µM subunit concentration in 400 mM ammonium acetate, 5 min at room temperature; nanoelectrospray, sample cone voltage 50 V, source 80°C.

Turning to B1, the binding result in series [1] is reported as “binds”. Still for that read-out and setting: then B2, with “binds”.

With B3, in series [2], the binding result is recorded as “binds”.

In the case of B4, in series [1], the binding result was “binds”.

For the molecule B5, the binding result in series [1] is listed as “binds”.

As for B6, in series [2], the binding result is “binds”. On to B7, for which the “stoichiometry N” value in series [3] is 12 and 14.

Usually stoichiometry N stands for the number of molecules, sites or subunits per partner or assembly.
